In publication PMC7909837, “Function and Regulation of Chloroplast Peroxiredoxin IIE” (Antioxidants, 2021):

Biological target: T1, 14-3-3 υ protein, recombinant (A. thaliana, UniProt P42645 1-268)
T1 construct: 14-3-3 υ, A. thaliana, AT5G16050; construct and tags not described
T1 sequence (looked up): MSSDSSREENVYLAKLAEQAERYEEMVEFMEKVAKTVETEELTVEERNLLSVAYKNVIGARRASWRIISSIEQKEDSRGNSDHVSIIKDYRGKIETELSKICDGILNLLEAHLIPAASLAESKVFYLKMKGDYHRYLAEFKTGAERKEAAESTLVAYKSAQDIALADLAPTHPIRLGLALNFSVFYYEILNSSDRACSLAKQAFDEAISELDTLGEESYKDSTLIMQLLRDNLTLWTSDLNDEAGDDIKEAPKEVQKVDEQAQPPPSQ
Experiment: far-Western, overlay or dot blot; dilution series of recombinant 14-3-3 υ spotted on nitrocellulose; incubated with PRX-IIE or its phospho-mimicry variants in TBS with either 1 mM DTT or 100 µM H2O2 overnight at 4 °C; detected with anti-PRX-IIE antibody; spots quantified with ImageJ
Settings: both partners purified

- fold improvement of binding under oxidizing conditions (100 µM H2O2) against the other conditions: 2.5 fold
B1: Peroxiredoxin IIE (PRX-IIE), wild type, His6-tagged recombinant (enzyme, A. thaliana, UniProt Q949U7 71-234, looked up)
chain: ASISVGDKLPDSTLSYLDPSTGDVKTVTVSSLTAGKKTILFAVPGAFTPTCSQKHVPGFVSKAGELRSKGIDVIACISVNDAFVMEAWRKDLGINDEVMLLSDGNGEFTGKLGVELDLRDKPVGLGVRSRRYAILADDGVVKVLNLEEGGAFTNSSAEDMLKAL
notes: Peroxiredoxin IIE, A. thaliana, AT3G52960, cloned into pET28a (NdeI/BamHI); also called PRX-IIE WT; WT PRX-IIE; source: E. coli BL21 (DE3)pLysS, purified (Ni-NTA, dialysis)
